Laboratory results as given in US20250025561A1, “LIQUID COMPOSITIONS COMPRISING A PHOSPHORYLCHOLINE-TUFTSIN CONJUGATE” (Tarsier Pharma Ltd., priority 2021, published 2025).
*1 amine or outer side, *2 acyl side, *3 side chain or, on linkers, in order; H or OH if unused. Where a SMILES comes first, the peptide text is derived from it. [ ]: non-standard residue; d: D form. X1 = C[N+](C)(C)CCOP(=O)([O-])Oc1ccc(/N=N/c2cc(C[C@H](N[*:1])C(=O)[*:2])ccc2O)cc1; X2 = C[N+](C)(C)CCOP(=O)(O)Oc1ccc(/N=N\c2cc(CC(N[*:1])C(=O)[*:2])ccc2O)cc1; NMeT = CN[CH](C(=O)O)[CH](C)O

How the values were obtained:
[1] = Chemical stability of the synthesized conjugates; assay type: physicochemical
Procedure: In brief, 50 mg of TRS was dissolved in 2.5 mL of water and 50 equivalents of acetaldehyde were added (at room temperature). Then, the pH was adjusted to 6.8. The solution was shaken over the weekend and analyzed by an analytical HPLC. […] The reaction mixture was purified by a preparative HPLC, to isolate the phosphorylcholine tuftsin conjugate of Formula 3A.
The phosphorylcholine tuftsin conjugate of Formula 3A was dissolved in 0.1% formic acid in water and the pH was adjusted to 2.7. After 30 min, the solution was lyophilized. The crude reaction mixture was purified by preparative HPLC to obtain the phosphorylcholine tuftsin conjugate of Formula 2A.

[2] = Biological activity (test not specified)
[3] = Solubility of drug substance in water; assay type: physicochemical
Procedure: Drug Substance [TRS]: is a trifluoroacetate [TFA] salt of phosphorylcholine-tuftsin conjugate represented by Formula 1 (as shown herein). Molecular formula: C43H68N13O13P, Appearance: Yellow to orange solid. Solubility: >40 mg/ml in water.

yeasts (S. cerevisiae) = assay: Yeast fermentation activity (gas formation) in aqueous suspension with sucrose; assay type: cell-based; conditions: FIG. 2
Procedure: Yeast fermentation activity was correlated to the formation of bubbles within the aqueous suspension.
In brief, varying amount of 1% w/w solution of TRS was added to an aqueous suspension containing yeasts (S. cerevisiae) and a sufficient amount of sucrose, to obtain aqueous compositions containing 4 ppm, 20 ppm, 40 ppm, and 80 ppm of TRS. The gas formation (fermentation activity) of the aqueous suspension with TRS (hereinafter, “the sample”) was quantified by evaluating the volume of the released gas and compared to a similar aqueous yeast suspension devoid of TRS (hereinafter, “the control”).
Further, the phosphorylcholine tuftsin conjugate (PC) of Formula 2A synthesized as disclosed herein, has been tested to evaluate its antifungal activity. The inventors performed a similar experiment, as disclosed above, using varying concentrations of the phosphorylcholine tuftsin conjugate of Formula 2 (i.e. 6.7 ppm, 20 ppm, 40 ppm, and 80 ppm).

CC1NC([C@@H](C)O)C(=O)N1[C@@H](CCCCN)C(=O)N1CCCC1C(=O)N[C@@H](CCCNC(=N)N)CNCC(=O)N[C@@H](Cc1ccc(O)c(/N=N\c2ccc(OP(=O)(O)OCC[N+](C)(C)C)cc2)c1)C(=O)O (stereo partly shown) [Formula 2A]
chemical stability [1]: sufficient chemical stability | biological activity [2]: solid biological activity

CNC(C(=O)NC(CCCCN)C(=O)N1CCCC1C(=O)NC(CCCNC(=N)N)C(=O)NCC(=O)NC(Cc1ccc(O)c(/N=N\c2ccc(OP(=O)(O)OCC[N+](C)(C)C)cc2)c1)C(=O)O)C(C)O (stereo not shown) [Formula 5] (H-[NMeT]KPRG[X2]-OH; configuration not given here)
chemical stability as compared to PC of Formula 2 [1]: reduced chemical stability

C[C@@H](O)[C@H](N)C(=O)N[C@@H](CCCCN)C(=O)N1CCC[C@H]1C(=O)N[C@@H](CCCNC(=N)N)C(=O)NCC(=O)N[C@@H](Cc1ccc(O)c(/N=N/c2ccc(OP(=O)([O-])OCC[N+](C)(C)C)cc2)c1)C(=O)O [TRS] (H-TKPRG[X1]-OH)
solubility [3]: > 40 mg/mL

CC(O)C1NC(C)N(C(CCCCN)C(=O)N2CCCC2C(=O)NC(CCCNC(=N)N)C(=O)NCC(=O)NC(Cc2ccc(O)c(N=Nc3ccc(OP(=O)(O)OCC[N+](C)(C)C)cc3)c2)C(=O)O)C1=O (stereo not shown) [Formula 2]
yeast activity vs control (yeasts (S. cerevisiae); 80 ppm): almost completely eliminated | yeast activity vs control (yeasts (S. cerevisiae); lowest concentration of about 7 ppm (6.7 ppm)): significant reduction of the yeast activity

C/C=N/CCCC[C@@H](C(=O)N1CCCC1C(=O)N[C@@H](CCCNC(=N)N)CNCC(=O)N[C@@H](Cc1ccc(O)c(/N=N/c2ccc(OP(=O)(O)OCC[N+](C)(C)C)cc2)c1)C(=O)O)N1C(=O)C([C@@H](C)O)NC1C (stereo partly shown) [Formula 3A]
hydrolysis (converted into PC of Formula 2A) ([1]; at acidic pH): undergoes hydrolysis
